# PMC7568338 (Proceedings of the National Academy of Sciences of the …, 2020)
# Changes are numbered by the printed parent chain.
# B1: ^D645CClpA (enzyme, E. coli, UniProt P0ABH9 1-749, looked up)
# chain: MLNQELELSLNMAFARAREHRHEFMTVEHLLLALLSNPSAREALEASSVDLVALRQELEAFIEQTTPVLPASEEERDTQPTLSFQRVLQRAVFHVQSSGRNEVTGANVLVAIFSEQESQAAYLLRKHEVSRLDVVNFISHGTRKDEPTQSSDPGSQPNSEEQAGGEERMENFTTNLNQLARVGGIDPLIGREKELERAIQVLSRRRKNNPLLVGESGVGKTAIAEGLAWRIVQGDVPEVMADSTIYSLDIGSLLAGTKYRGDFEKRFKALLKQLEQDTNSILFIDEIHTIIGAGAASGGQVDAANLIKPLLSSGKIRVIGSTTYQEFSNIFEKDRALARRFQKIDITEPSIEETVQIINGLKPKYEAHHDVRYTAKAVRAAVELAVKYINDRHLPDKAIDVIDEAGARARLMPVSKRKKTVNVADIESVVARIARIPEKSVSQSDRDTLKNLGDRLKMLVFGQDKAIEALTEAIKMARAGLGHEHKPVGSFLFAGPTGVGKTEVTVQLSKALGIELLRFDMSEYMERHTVSRLIGAPPGYVGFDQGGLLTDAVIKHPHAVLLLDEIEKAHPDVFNILLQVMDNGTLTDNNGRKADFRNVVLVMTTNAGVRETERKSIGLIHQDNSTDAMEEIKKIFTPEFRNRLCNIIWFDHLSTDVIHQVVDKFIVELQVQLDQKGVSLEVSQEARNWLAEKGYDRAMGARPMARVIQDNLKKPLANELLFGSLVDGGQVTVALDKEKNELTYGFQSA
# B2: ^Q709CClpA (enzyme, E. coli, UniProt P0ABH9 1-749, looked up)
# chain: B1 chain with C645D, Q709C
# Target: the molecule itself
# Assay: SEC
row,Protein,binding result
1,B1,binds
2,B2,binds
